Measurements: article PMC2323294
Where “and” joins values, the source holds several entries; their conditions need not be identical. Identical values can stand only once.

Target: recombinant human gC1qR/HABP1/p32 (mature, amino acids 74-282) (human) (UniProt Q07021)
Experiment: SEC; gel permeation chromatography of purified recombinant gC1qR/HABP1 on a Superdex 200 HR10/30 column, against molecular weight standards

stoichiometry N: 3 and 2
Substance: recombinant human gC1qR/HABP1/p32 (mature, amino acids 74-282) (from UniProt Q07021 74-282) (natural protein; other documents disagree on this pair)
